According to patent US20050266008A1 (Bristol-Myers Squibb, published 2005):

T1: IRTA2 expressed on transfected CHO cells (full-length transmembrane form with N-terminal epitope tag) (human, UniProt Q96RD9 16-977)
T1 construct: also called CHO line expressing IRTA2
T1 chain: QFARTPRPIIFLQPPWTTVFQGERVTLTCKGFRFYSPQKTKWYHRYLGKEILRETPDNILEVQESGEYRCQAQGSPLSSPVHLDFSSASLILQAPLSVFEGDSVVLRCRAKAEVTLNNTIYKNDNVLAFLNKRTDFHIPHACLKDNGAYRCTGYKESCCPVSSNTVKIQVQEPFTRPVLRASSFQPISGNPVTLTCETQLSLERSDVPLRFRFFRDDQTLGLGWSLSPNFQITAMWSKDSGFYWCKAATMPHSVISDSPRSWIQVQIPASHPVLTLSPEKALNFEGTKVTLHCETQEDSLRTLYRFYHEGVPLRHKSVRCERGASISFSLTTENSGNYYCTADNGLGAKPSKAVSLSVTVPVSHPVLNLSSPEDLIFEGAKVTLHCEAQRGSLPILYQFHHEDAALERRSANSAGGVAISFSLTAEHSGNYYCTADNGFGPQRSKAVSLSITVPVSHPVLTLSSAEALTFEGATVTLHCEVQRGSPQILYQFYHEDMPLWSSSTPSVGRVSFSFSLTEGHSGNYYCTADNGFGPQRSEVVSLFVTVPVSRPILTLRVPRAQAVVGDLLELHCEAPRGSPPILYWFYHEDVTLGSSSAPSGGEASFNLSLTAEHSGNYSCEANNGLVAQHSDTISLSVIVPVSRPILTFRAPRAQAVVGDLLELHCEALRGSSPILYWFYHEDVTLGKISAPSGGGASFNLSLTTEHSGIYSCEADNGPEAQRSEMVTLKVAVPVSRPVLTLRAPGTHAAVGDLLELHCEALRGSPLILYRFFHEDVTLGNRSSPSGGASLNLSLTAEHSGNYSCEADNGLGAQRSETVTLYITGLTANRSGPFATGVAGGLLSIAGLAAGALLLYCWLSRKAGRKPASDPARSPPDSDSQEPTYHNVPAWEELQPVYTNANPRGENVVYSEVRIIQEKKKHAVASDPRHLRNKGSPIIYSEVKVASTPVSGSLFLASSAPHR

T2: IRTA5 expressed on transfected CHO cells (full-length transmembrane form with N-terminal epitope tag) (human, UniProt Q96LA6 17-429)
T2 construct: Neither the signal peptide limits nor the tag is stated; also called CHO line transfected with IRTA5; human IRTA-5
T2 sequence: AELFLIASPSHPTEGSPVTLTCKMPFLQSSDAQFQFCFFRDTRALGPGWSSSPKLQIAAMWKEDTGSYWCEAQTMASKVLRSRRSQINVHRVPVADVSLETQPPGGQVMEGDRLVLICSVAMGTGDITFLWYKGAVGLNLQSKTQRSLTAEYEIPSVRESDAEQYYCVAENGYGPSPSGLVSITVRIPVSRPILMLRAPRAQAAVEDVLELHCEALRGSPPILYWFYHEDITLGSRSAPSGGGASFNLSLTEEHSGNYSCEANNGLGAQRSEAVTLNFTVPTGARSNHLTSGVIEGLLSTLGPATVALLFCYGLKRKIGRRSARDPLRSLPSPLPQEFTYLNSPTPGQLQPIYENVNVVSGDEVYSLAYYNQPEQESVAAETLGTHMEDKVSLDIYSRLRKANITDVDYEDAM

T3: IRTA4 expressed on transfected CHO cells (full-length transmembrane form with N-terminal epitope tag) (human, UniProt Q96LA5 20-508)
T3 construct: also called CHO line expressing IRTA4
T3 sequence: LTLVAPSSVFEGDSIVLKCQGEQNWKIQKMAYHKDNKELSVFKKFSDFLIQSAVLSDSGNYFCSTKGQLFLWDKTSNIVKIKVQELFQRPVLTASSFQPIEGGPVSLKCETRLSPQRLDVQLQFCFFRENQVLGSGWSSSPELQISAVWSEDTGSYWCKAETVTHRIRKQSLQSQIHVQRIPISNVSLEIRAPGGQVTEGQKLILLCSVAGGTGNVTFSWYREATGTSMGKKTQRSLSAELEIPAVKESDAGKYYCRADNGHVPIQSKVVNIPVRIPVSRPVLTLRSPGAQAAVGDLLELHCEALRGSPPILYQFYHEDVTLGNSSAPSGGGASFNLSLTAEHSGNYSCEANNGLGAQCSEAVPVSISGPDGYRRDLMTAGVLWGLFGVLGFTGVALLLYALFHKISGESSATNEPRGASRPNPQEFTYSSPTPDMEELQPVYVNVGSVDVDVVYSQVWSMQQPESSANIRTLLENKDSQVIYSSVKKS

T4: IRTA3 expressed on transfected CHO cells (full-length transmembrane form with N-terminal epitope tag) (human, UniProt Q96P31 18-734)
T4 construct: also called CHO line expressing IRTA3
T4 sequence: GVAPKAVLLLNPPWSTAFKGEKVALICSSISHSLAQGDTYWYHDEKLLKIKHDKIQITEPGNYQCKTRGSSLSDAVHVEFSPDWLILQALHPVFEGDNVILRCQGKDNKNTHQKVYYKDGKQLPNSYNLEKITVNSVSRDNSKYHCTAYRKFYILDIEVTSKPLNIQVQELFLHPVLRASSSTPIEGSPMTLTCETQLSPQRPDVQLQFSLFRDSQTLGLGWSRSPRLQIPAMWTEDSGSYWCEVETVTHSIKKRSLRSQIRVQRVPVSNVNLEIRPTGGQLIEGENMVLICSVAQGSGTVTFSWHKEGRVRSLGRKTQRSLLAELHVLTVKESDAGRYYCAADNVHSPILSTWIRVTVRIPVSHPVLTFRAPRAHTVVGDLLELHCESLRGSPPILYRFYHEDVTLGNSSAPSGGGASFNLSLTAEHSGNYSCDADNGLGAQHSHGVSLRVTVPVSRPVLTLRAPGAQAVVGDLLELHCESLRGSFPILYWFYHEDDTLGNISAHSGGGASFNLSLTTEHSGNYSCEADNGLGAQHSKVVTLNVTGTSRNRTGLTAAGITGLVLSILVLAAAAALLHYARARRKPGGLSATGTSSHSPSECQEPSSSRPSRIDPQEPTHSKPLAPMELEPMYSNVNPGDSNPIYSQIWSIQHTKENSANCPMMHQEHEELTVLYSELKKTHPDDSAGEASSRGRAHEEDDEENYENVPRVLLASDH

T5: IRTA1 expressed on transfected CHO cells (full-length transmembrane form with N-terminal epitope tag) (human, UniProt Q96PJ5 20-515)
T5 construct: also called CHO line expressing IRTA1
T5 sequence: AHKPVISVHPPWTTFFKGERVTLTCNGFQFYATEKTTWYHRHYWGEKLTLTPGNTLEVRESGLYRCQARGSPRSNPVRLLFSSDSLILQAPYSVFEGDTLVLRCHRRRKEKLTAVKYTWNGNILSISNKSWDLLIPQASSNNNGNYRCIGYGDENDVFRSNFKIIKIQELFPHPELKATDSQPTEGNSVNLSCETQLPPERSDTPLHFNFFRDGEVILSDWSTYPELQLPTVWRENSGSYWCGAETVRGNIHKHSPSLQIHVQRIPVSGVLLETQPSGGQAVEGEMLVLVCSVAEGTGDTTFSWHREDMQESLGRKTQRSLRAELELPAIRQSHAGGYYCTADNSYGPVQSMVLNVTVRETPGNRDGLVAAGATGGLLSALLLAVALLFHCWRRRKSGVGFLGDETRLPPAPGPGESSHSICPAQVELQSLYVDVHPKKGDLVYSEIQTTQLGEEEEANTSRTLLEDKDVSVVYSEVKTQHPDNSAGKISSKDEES

T6: IRTA5 protein as naturally expressed on human peripheral blood B lymphocytes and B cell tumor lines (human, UniProt Q96LA6 17-429)
T6 construct: Endogenous protein on untransfected human cells; also called IRTA-5 on CD19+ B cells, Daudi, Ramos, SU-DHL-4
T6 sequence: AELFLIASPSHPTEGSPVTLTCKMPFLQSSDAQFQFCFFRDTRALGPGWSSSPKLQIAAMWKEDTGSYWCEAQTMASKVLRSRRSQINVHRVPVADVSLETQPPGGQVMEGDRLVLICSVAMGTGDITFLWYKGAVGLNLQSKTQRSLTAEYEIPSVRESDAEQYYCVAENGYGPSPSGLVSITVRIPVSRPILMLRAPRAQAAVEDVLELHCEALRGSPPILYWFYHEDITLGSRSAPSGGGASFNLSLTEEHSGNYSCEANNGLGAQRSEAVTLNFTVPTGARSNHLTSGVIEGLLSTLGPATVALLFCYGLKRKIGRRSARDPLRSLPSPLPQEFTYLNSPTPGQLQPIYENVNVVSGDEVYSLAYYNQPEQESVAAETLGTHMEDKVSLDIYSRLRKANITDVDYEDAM


Assays:
[1] = target: T1, IRTA2 expressed on transfected CHO …; test: flow cytometry on IRTA2-CHO cells, FITC-labeled anti-human IgG
Text: (§1) Chinese hamster ovary (CHO) cell lines that express one of each of the five IRTA proteins at the cell surface were developed and used to determine the specificity of the IRTA5 HuMAbs by flow cytometry. CHO cells were transfected with expression plasmids containing full length cDNA encoding transmembrane forms of IRTA1, IRTA2, IRTA3, IRTA4, or IRTA5. In addition, the transfected proteins contained an epitope tag at the N-terminus for detection by an antibody specific for the epitope. Binding of the seven anti-IRTA5 HuMAbs was assessed by incubating the transfected cells with each of the IRTA5 Abs at a concentration of 10 μg/ml. The cells were washed and binding was detected with a FITC-labeled anti-human IgG Ab. A murine anti-epitope tag Ab, followed by labeled anti-murine IgG, was used as the positive control. Non-specific human and murine Abs were used as negative controls. The results are depicted in FIG. 9. The IRTA5 HuMAbs bound to the CHO line transfected with IRTA5 but not to CHO lines expressing IRTA1, 2, or 4 as measured by the mean fluorescent intensity (MFI) of staining.

[2] = target: T2, IRTA5 expressed on transfected CHO …; test: flow cytometry on IRTA5-CHO cells, antibody at 10 µg/ml, FITC-labeled anti-human IgG; the log y axis has no label on the sheet (MFI per the text)
Text: as §1

[3] = target: T3, IRTA4 expressed on transfected CHO …; test: flow cytometry on IRTA4-CHO cells, FITC-labeled anti-human IgG
Text: as §1

[4] = target: T7, purified recombinant human IRTA5 fusion protein (human); test: Biacore SPR; IRTA5 fusion protein amine-coupled to CM5 chip, antibody flowed at 267 nM, 1:1 Langmuir fit
T7 construct: Amine-coupled to a CM5 chip in the Biacore kinetics; also called recombinant IRTA5 fusion protein
Protocol: Anti-IRTA5 antibodies were characterized for affinities and binding kinetics by Biacore analysis (Biacore AB, Uppsala, Sweden). Purified recombinant human IRTA5 fusion protein was covalently linked to a CM5 chip (carboxy methyl dextran coated chip) via primary amines, using standard amine coupling chemistry and kit provided by Biacore. Binding was measured by flowing the antibodies in HBS EP buffer (provided by BIAcore AB) at a concentration of 267 nM at a flow rate of 50 μl/min. The antigen-ssociation antibodies association kinetics was followed for 3 minutes and the dissociation kinetics was followed for 7 minutes. The association and dissociation curves were fit to a 1:1 Langmuir binding model using BlAevaluation software (Biacore AB). To minimize the effects of avidity in the estimation of the binding constants, only the initial segment of data coressponding to association and dissociation phases were used for fitting.

[5] = target: T4, IRTA3 expressed on transfected CHO …; test: flow cytometry on transfected CHO cells
Text: as §1

[6] = target: T5, IRTA1 expressed on transfected CHO …; test: flow cytometry on IRTA1-CHO cells, FITC-labeled anti-human IgG
Text: as §1

[7] = target: T6, IRTA5 protein as naturally expressed on …; test: two-colour flow cytometry on human PBMC: biotinylated antibody plus FITC-streptavidin (FL1) against PE anti-CD19 (FL2)
Protocol: CD19 is a cell surface marker that can be used to distinguish peripheral blood B lymphocytes. Human peripheral blood mononuclear cells were incubated with biotinylated 2G5, biotinylated 7G8, or an isotype control biotinylated human Ab. Cells were washed and were incubated with FITC-labeled streptavidin together with a phycoerythrin-labeled anti-CD19 antibody. Cells were washed and analyzed by flow cytometry. The results are depicted in FIG. 10A. Lymphocytes were gated as black “dots” and monocytes were gated as grey “dots”. Wavelengths were selected to screen for FITC (FL 1) and phycoerythrin (FL2) signaling. […] 2G5+ or 7G8+ cells (ordinate) were also predominantly CD19+, localizing to the double-positive, upper right quadrant.

[8] = target: T6, IRTA5 protein as naturally expressed on …; test: flow cytometry on Daudi and Ramos cells, PE anti-human secondary antibody
Protocol: The cell lines were incubated with each of the IRTA5 HuMAbs or a control human antibody, washed and detected by a phycoerythrin-labeled anti-human secondary antibody. […] The remaining 6 IRTA5 HuMAbs show a similar binding pattern (data not shown).

| Binder | binding result [1] | binding result [2] | binding result [3] | Kd [4] [nM] | koff [4] [s⁻¹] | kon [4] [M⁻¹ s⁻¹] | binding result [5] | binding result [6] | binding result [7] | binding result [8] |
| --- | --- | --- | --- | --- | --- | --- | --- | --- | --- | --- |
| human monoclonal antibody 2G5 (antibody, V domains shown, Fully human IgG with kappa light chain from an HCo7 HuMab Mouse hybridoma; also called IRTA5 HuMAb 2G5; biotinylated 2G5) VH: QVQLVESGGGVVQPGRSLRLSCAASGFTFSDYGMHWVRQAPGKGLEWVAVIWYDGNNKYYADSVKGRFTISRDNSKNTLYLQMNSLRAEDTAVYYCARDWGRAFDIWGQGTMVTVSS VL: EIVLTQSPATLSLSPGERATLSCRASQSVSSYLAWYQQKPGQAPRLLIYDASNRATGIPARFSGSGSGTDFTLTISSLEPEDFALYYCQQLNNWPPYTFGQGTKLEIK | no binding (tested: 10 µg/ml) | binds | no binding (tested: 10 µg/ml) | 0.028 | 4.3e-06 | 152000 | no binding | no binding (tested: 10 µg/ml) | binds |  |
| human monoclonal antibody 5A2 (antibody, V domains shown, Fully human IgG with kappa light chain from an HCo7 HuMab Mouse hybridoma) VH: QVQVVESGGGVVQPGRSLRLSCAASGFTFSNYGMHWVRQAPGKGLEWVAGIWYDGSNKYYADSVKGRFTISRDNSKNTLYLQMNSLRAEDTAVYYCARESPNFDYWGQGTLVTVSS VL: EIVLTQSPATLSLSPGERATLSCRASQSVSSYLAWYQQKPGQAPRLLIYDASNRATGIPARFSGSGSGTDFTLTISSLEPEDFAVYYCQQRNNWPPWTFGQGTKVEIK | no binding (tested: 10 µg/ml) | binds | no binding (tested: 10 µg/ml) | 0.035 | 8.7e-06 | 252000 | no binding | no binding (tested: 10 µg/ml) |  | binds |
| human monoclonal antibody 7G8 (antibody, V domains shown, Fully human IgG with kappa light chain from an HCo7 HuMab Mouse hybridoma; also called IRTA5 HuMAb 7G8; biotinylated 7G8) VH: DVHLVQSGGGLVHPGGSLRLSCAGSGFTFSTYTMHWIRQAPGKDLEWVSAIGTGGGTDYADSVKGRFTISRDNAKNSLYLQMNSLRAEDMAVYYCAREVYWYFDLWGRGTLVTVSS VL: not shown | no binding (tested: 10 µg/ml) | binds | no binding (tested: 10 µg/ml) | 16.8 | 0.00121 | 72000 | no binding | no binding (tested: 10 µg/ml) | binds |  |
